The results in this text go back to US20260217821A1 (SPH BIOTHERAPEUTICS SHANGHAI, published 2026).

In test [1] the target is T1, ROR1 expressed on cells (A549, MB231, JeKo-1, MEC-ROR1) (UniProt Q01973 30-937).
T1 construct: whole, on cells; also called ROR1-expressing cell lines; ROR1-positive cells
The test can be described thus: flow cytometry on A549 cells, 1 µg/ml, anti-HA APC. A general note: Flow cytometry measures light scatter and fluorescence of single cells or particles in a stream.

Test [2] deals with T1, ROR1 expressed on cells (A549, MB231, …). Briefly: flow cytometry on MB231 cells, 1 µg/ml, anti-HA APC.
Test [3] has the same target. Briefly: flow cytometry on JeKo-1 cells, 1 µg/ml, anti-HA APC.
Test [4] deals with T2, recombinant ROR1 protein (UniProt Q01973 30-403, limits assumed).
T2 construct: also called his-tagged ROR1; not shown: his tag
T2 sequence (Q01973 30-403 limits assumed): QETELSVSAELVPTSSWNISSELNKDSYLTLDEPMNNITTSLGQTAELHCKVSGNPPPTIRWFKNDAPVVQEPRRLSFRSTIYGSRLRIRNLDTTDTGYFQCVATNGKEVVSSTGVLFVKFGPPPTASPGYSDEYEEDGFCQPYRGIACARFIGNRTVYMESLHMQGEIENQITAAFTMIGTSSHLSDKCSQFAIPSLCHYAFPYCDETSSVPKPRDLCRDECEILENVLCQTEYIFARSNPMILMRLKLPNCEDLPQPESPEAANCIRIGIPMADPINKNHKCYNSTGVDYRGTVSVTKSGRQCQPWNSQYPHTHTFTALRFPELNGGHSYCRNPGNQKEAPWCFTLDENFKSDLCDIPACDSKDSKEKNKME
Briefly: ELISA, OD450 (FIG. 6C). For orientation: In an ELISA, binding on a coated surface is turned into a signal by an enzyme label.

The target of test [5] is T1, ROR1 expressed on cells (A549, MB231, …). Briefly: cell-based or functional assay.

T1 sequence (Q01973 30-937): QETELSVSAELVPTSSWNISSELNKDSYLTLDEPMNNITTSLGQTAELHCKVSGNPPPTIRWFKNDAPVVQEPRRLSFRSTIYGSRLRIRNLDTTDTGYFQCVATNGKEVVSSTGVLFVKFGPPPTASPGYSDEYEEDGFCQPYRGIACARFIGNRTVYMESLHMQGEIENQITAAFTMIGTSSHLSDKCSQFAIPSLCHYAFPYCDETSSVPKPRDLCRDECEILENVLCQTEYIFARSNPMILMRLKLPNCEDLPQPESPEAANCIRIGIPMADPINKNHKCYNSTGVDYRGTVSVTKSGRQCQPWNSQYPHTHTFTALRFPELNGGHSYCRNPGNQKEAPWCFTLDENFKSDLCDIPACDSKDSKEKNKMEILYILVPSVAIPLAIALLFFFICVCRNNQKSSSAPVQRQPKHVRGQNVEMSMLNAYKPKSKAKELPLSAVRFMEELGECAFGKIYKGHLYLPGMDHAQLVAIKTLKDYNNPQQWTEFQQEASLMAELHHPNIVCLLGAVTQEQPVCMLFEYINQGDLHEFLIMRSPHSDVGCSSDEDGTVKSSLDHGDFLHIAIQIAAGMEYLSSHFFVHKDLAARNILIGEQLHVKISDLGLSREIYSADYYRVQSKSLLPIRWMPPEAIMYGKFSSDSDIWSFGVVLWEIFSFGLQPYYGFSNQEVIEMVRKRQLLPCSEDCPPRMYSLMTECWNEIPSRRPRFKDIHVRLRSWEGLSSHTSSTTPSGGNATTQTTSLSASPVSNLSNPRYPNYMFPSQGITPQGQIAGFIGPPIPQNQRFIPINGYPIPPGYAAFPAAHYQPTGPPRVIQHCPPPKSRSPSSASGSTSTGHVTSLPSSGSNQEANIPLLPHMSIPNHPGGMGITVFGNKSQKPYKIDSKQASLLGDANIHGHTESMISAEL

B1: 5-95 (VHH)
VHH: QVQLQESGGGLVQPGGSLRLSCAASGFTFSTYSMTWVRQAPGKGLEWVSDINSGGSVAYYTDSVKGRFTASRDNAKNTLYLQMNSLKPEDTAVYYCYEGGYHGGSPRGHGTQVTVSS
notes: not shown: one his tag and one HA tag at the C-terminus
As for B1, the entries for the “proportion of binding cells” value in test [1], in test [2] and in test [3] were 11.8%, 53.3% and 1.18%, respectively.

B2: 5-26 (VHH)
VHH: QVQLQESGGGLVQPGGSLRLSCAASGFTLDLYAIGWFRQAPGKERERVSCISSGGSTNYAESVKGRFTISRDNGKNTVYLQMNSLKPEDTAVYYCVRSVPSCGSYYFPPRNMNYWGKGTQVTVSS
notes: Alpaca VHH from the phage library; not shown: one his tag and one HA tag at the C-terminus
Consider B2, for which the “proportion of binding cells” value stood at 97% in test [1], 96.8% in test [2] and 99.7% in test [3].

B3: 5-09 (VHH)
VHH: QVQLQESGGGLVQPGGSLRLSCAASGFTLDDYAIGWFRQAPGKERERISCISSGGNTNYADSVKGRFTLSRDNAKNTVYLQMYSLKPEDTAVYYCTASIPSCASYYFPPRNMDYWGKGTQVTVSS
notes: also called 5-9; not shown: one his tag and one HA tag at the C-terminus
B3: the “proportion of binding cells” value is 18.5% in test [1], 61.7% in test [2] and 1.9% in test [3].

B4: VHH2 (VHH)
VHH: QVQLVESGGGLVQAGGSLRLSCAASGSIFSINAMAWYRHRPGMQRERVAAISSGGTTSYADSVKGRFTISRDNARDTLYLQMNSLKPEDTAMYYCAACPGDYTSTICNSDGMDYWGKGTLVTVSS
notes: Non-specific control VHH; also called non-specific VHH; negative control VHH2
For the molecule B4, the binding result in test [4] was “no binding”.

B5: 4-92 (VHH)
VHH: QVQLQESGGGLVQPGGSLRLSCAASGFAFSSRAMSWVRQAPGKGLEWVSDINYDGAWTYYADSVKGRFTISRDNAKNTLYLQMNSLKPEDTAVYFCTDPWSIDGWGQGTQVTVSS
notes: as for B2
For B5, the “proportion of binding cells” value came to 34.6% in test [1], 74.3% in test [2] and 2.96% in test [3].

B6: hu5-26 ROR1 VHH CAR (other)
chain: QVQLVESGGGLVQPGGSLRLSCAASGFTLDLYAIGWFRQAPGKERGLVSCISSGGSTNYAESVKGRFTISRDNSKNTVYLQMNSLRSEDTAVYYCVRSVPSCGSYYFPPRNMNYWGQGTLVTVSSIEVMYPPPYLDNEKSNGTIIHVKGKHLCPSPLFPGPSKPFWVLVVVGGVLACYSLLVTVAFIIFWVKRGRKKLLYIFKQPFMRPVQTTQEEDGCSCRFPEEEEGGCELRVKFSRSADAPAYKQGQNQLYNELNLGRREEYDVLDKRRGRDPEMGGKPRRKNPQEGLYNELQKDKMAEAYSEIGMKGERRRGKGHDGLYQGLSTATKDTYDALHMQALPPR
Regarding B6, in test [5], the “proportion of target cells (surviving, GFP-labeled) after 24 hours, effector-to-target ratio 1:1, MB231” value was found to be 2.96% and the “proportion of target cells (surviving, GFP-labeled) after 24 hours, effector-to-target ratio 1:1, MEC-ROR1” value came to 1.93%.

B7: VHH1 (VHH)
VHH: QVQLVESGGGLVQPGGSLRLSCAASGFTFSDTWMNWVRQAPGKGLYWISAINPDGGNTAYADSVKGRFTISRDNAKNMVYLQMDNLRPEDTAMYYCAKGWVRLPDPDLVRGQGTQVTVSS
notes: Non-specific control VHH; also called non-specific VHH; negative control VHH1
For the molecule B7, in test [4], the binding result was “no binding”.
